Laboratory results reported in patent US20090214565A1 (BAYLOR RESEARCH INSTITUTE, published 2009).

Legend:
IFN-α C [1] = target: T1, IFN-α C (human, UniProt P01566 24-189); assay: cell-based or functional assay
IFN-α F [2] = target: T2, IFN-α F (human, UniProt P01568 24-189); assay: cell-based or functional assay
IFN-α G [3] = target: T3, IFN-α G (human, UniProt P01569 24-189); assay: cell-based or functional assay
IFN-α H2 [4] = target: T4, IFN-α H2 (human, UniProt P01570 24-189); assay: cell-based or functional assay
IFN-α I [5] = target: T5, IFN-α I (human, UniProt P01571 24-189); assay: cell-based or functional assay
IFN-α J1 [6] = target: T6, IFN-α J1 (human, UniProt P01567 24-189); assay: cell-based or functional assay
IFN-α K [7] = target: T7, IFN-α K (human, UniProt P05013 24-189); assay: cell-based or functional assay
IFN-α4a [8] = target: T8, IFN-α4a (human, UniProt P05014 24-189, limits assumed); assay: cell-based or functional assay
IFN-α WA [9] = target: T9, IFN-α WA (human, UniProt P05015 24-189); assay: cell-based or functional assay
IFN-α C [10] = target: T1, IFN-α C; assay: cell-based or functional assay; remark: listed apart in the source
IFN-α D [11] = target: T10, IFN-α D (human, UniProt P0DY56 24-189); assay: cell-based or functional assay
IFN-α F [12] = target: T2, IFN-α F; assay: cell-based or functional assay; remark: listed apart in the source
IFN-α G [13] = target: T3, IFN-α G; assay: cell-based or functional assay; remark: listed apart in the source
IFN-α H2 [14] = target: T4, IFN-α H2; assay: cell-based or functional assay; remark: listed apart in the source
IFN-α I [15] = target: T5, IFN-α I; assay: cell-based or functional assay; remark: listed apart in the source
IFN-α J1 [16] = target: T6, IFN-α J1; assay: cell-based or functional assay; remark: listed apart in the source
IFN-α K [17] = target: T7, IFN-α K; assay: cell-based or functional assay; remark: listed apart in the source
IFN-α4a [18] = target: T8, IFN-α4a; assay: cell-based or functional assay; remark: listed apart in the source
IFN-α WA [19] = target: T9, IFN-α WA; assay: cell-based or functional assay; remark: listed apart in the source
IFN-β = IFN-β (human, UniProt P01574 22-187); assay: cell-based or functional assay
IFN-α C [20] = target: T1, IFN-α C; assay: cell-based or functional assay; remark: listed apart in the source
IFN-α D [21] = target: T10, IFN-α D; assay: cell-based or functional assay; remark: listed apart in the source
IFN-α F [22] = target: T2, IFN-α F; assay: cell-based or functional assay; remark: listed apart in the source
IFN-α G [23] = target: T3, IFN-α G; assay: cell-based or functional assay; remark: listed apart in the source
IFN-α H2 [24] = target: T4, IFN-α H2; assay: cell-based or functional assay; remark: listed apart in the source
IFN-α I [25] = target: T5, IFN-α I; assay: cell-based or functional assay; remark: listed apart in the source
IFN-α J1 [26] = target: T6, IFN-α J1; assay: cell-based or functional assay; remark: listed apart in the source
IFN-α K [27] = target: T7, IFN-α K; assay: cell-based or functional assay; remark: listed apart in the source
IFN-α4a [28] = target: T8, IFN-α4a; assay: cell-based or functional assay; remark: listed apart in the source
IFN-α WA [29] = target: T9, IFN-α WA; assay: cell-based or functional assay; remark: listed apart in the source
IFN-α D [30] = target: T10, IFN-α D; assay: ELISA, IFN subtype coated
Description: Solid-phase binding of all 15 IFNα subtypes was evaluated for screening of MAb specificity by ELISA assay. Briefly, 50 μl/well of 1 μg/ml of a recombinant IFNα protein subtype were coated overnight at 4° C. on ELISA plates (NUNC MaxiSorp™) plates. Coated plates were blocked with PBS+1% BSA and incubated with 50 μl of 25 ng ACO candidate MAb in PBS for 1 hour at 37° C. The assays were developed by incubation with 50 μl/well of an HRP conjugated goat anti-mouse-IgG (Jackson ImmunoResearch) at room temperature for 30 minutes followed by incubation with 100 μl/well of TMB substrate solution (Zymed) for 15 minutes. The reaction was stopped with 100 μl/well of 1 N HCl and read at OD₄₅₀ on an ELISA plate reader.

leukocyte IFN (Sigma) = assay: cell-based or functional assay

T10 sequence (P0DY56 entry or part of it limits assumed): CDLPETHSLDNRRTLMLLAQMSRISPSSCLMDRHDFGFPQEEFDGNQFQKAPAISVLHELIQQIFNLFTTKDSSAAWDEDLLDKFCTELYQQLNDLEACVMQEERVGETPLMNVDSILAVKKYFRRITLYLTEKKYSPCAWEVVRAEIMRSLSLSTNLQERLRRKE
T8 sequence (P05014 24-189 limits assumed): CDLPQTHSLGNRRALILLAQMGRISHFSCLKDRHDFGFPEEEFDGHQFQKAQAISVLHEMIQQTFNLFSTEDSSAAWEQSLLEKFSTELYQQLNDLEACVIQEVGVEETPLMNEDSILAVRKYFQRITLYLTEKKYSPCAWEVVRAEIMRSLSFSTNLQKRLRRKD
T1 sequence (P01566 24-189): as the sequence (P05014 24-189 limits assumed) above, with A19G, H26P, G37R, F38I, E40Q, H46N, T132I, K134R counted along it
T6 sequence (P01567 24-189 limits assumed): as the sequence (P05014 24-189 limits assumed) above, with G10R, H26P, D35E, G37R, A51T, S116F, T132M, L152F, Q159K, R161G counted along it
T3 sequence (P01569 24-189): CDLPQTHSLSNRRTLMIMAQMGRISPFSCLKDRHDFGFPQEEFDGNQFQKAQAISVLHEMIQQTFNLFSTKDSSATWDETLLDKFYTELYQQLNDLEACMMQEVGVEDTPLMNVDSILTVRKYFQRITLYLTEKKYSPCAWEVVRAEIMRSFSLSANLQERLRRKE
T5 sequence (P01571 24-189): as the sequence (P05014 24-189 limits assumed) above, with H26P, F38L, E40Q, H46N, A51T, D95N, V106M, R161I counted along it
T7 sequence (P05013 24-189): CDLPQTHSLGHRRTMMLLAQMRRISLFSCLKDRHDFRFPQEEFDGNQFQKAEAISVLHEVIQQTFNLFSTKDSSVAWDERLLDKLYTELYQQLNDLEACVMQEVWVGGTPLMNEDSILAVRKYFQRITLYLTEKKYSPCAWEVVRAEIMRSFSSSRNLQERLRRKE
T4 sequence (P01570 24-189): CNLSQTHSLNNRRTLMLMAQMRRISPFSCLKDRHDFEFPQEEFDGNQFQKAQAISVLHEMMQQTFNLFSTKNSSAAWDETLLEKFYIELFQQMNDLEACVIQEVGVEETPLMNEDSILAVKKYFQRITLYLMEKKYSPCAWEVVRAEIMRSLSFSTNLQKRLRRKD
T2 sequence (P01568 24-189): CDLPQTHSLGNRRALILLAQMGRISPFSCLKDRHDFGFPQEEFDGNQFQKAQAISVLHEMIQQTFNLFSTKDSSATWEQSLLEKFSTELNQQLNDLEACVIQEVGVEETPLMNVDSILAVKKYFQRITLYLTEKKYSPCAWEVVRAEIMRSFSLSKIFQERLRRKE
T9 sequence (P05015 24-189): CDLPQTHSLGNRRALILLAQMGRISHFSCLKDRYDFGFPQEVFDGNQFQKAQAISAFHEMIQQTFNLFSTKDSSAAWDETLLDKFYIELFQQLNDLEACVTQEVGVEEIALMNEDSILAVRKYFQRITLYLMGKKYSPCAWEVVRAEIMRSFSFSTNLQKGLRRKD
Sequence of IFN-β (P01574 22-187 limits assumed): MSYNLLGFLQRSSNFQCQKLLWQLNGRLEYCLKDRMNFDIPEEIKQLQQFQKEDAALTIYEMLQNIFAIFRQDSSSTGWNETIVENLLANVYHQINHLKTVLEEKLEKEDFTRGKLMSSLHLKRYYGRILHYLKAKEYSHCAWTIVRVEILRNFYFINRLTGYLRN

B1: ACO-1 (antibody, V domains shown)
VH: QVQLQQPGAELVKPGASVKLSCKASGYTFTNYWMHWVKQRPGQGLEWIGEINPSHGRTIYNENFKSKATLTVDKSSITAFMQLSSLTSEDSAVYFCARGGLGPAWFAYWGQGTLVTVSA
VL: QIVLTQSPAIMSASPGEKVTLTCSAGSSVDSSYLYWYQQKPGSSPKLWIYSTSNLASGVPARFSGSGSGTSYSLTISSMEAEDAASYFCHQWSSYPFTFGSGTKLEIKR
notes: also called ACO-1 monoclonal antibody; hybridoma ATCC PTA-6557
IFN-α C [1]
  EC50 of neutralization, RG bioassay: 0.00056 µg/mL
IFN-α F [2]
  EC50 of neutralization, RG bioassay: 0.146 µg/mL
IFN-α G [3]
  EC50 of neutralization, RG bioassay: 0.0271 µg/mL
IFN-α H2 [4]
  EC50 of neutralization, RG bioassay: 0.153 µg/mL
IFN-α I [5]
  EC50 of neutralization, RG bioassay: 0.0135 µg/mL
IFN-α J1 [6]
  EC50 of neutralization, RG bioassay: 0.168 µg/mL
IFN-α K [7]
  EC50 of neutralization, RG bioassay: 0.235 µg/mL
IFN-α4a [8]
  EC50 of neutralization, RG bioassay: 0.00211 µg/mL
IFN-α WA [9]
  EC50 of neutralization, RG bioassay: 0.0848 µg/mL
IFN-α C [10]
  percentage neutralization, RG assay: 91.4%
IFN-α D [11]
  percentage neutralization, RG assay: 12.5%
IFN-α F [12]
  percentage neutralization, RG assay: 83.7%
IFN-α G [13]
  percentage neutralization, RG assay: 92.7%
IFN-α H2 [14]
  percentage neutralization, RG assay: 77.5%
IFN-α I [15]
  percentage neutralization, RG assay: 87.1%
IFN-α J1 [16]
  percentage neutralization, RG assay: 83.9%
IFN-α K [17]
  percentage neutralization, RG assay: 77.9%
IFN-α4a [18]
  percentage neutralization, RG assay: 67.8%
IFN-α WA [19]
  percentage neutralization, RG assay: 86.9%
IFN-β
  percentage neutralization, RG assay: 9%
IFN-α C [20]
  percentage neutralization, CPE assay: 99.4%
IFN-α D [21]
  percentage neutralization, CPE assay: 33%
IFN-α F [22]
  percentage neutralization, CPE assay: 96.6%
IFN-α G [23]
  percentage neutralization, CPE assay: 99%
IFN-α H2 [24]
  percentage neutralization, CPE assay: 95.9%
IFN-α I [25]
  percentage neutralization, CPE assay: 98%
IFN-α J1 [26]
  percentage neutralization, CPE assay: 98.1%
IFN-α K [27]
  percentage neutralization, CPE assay: 98.3%
IFN-α4a [28]
  percentage neutralization, CPE assay: 82.9%
IFN-α WA [29]
  percentage neutralization, CPE assay: 88.7%
IFN-α D [30]
  binding result: no binding (tested: <2-fold over matched controls; 25 ng MAb)
Leukocyte IFN (Sigma)
  neutralization of 600 pg leukocyte IFN, RG bioassay: > 50%
